The results in this text go back to patent CN117624362A.

The target of this experiment is T1, 人CD20 (human) (UniProt P11836).
T1 sequence (looked up): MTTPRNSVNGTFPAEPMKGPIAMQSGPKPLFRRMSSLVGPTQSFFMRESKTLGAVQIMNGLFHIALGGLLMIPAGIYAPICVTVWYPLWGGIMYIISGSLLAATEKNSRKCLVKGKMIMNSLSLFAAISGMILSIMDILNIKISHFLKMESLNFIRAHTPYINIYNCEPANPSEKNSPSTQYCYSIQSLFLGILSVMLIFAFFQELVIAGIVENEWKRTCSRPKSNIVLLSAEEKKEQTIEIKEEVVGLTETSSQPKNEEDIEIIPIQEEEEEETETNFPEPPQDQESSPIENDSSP
Briefly: flow cytometry titration on lysed human blood cells, dilutions 1:100 to 1:96000 of 1 mg/mL antibody, goat anti-mouse IgG-PE detection. In general terms: A flow cytometer gives signals particle by particle.

“商品化鼠抗人CD20[2H7]抗体 (Biolegend) (antibody)”: the 亲和力(kd) is 195 (1mg/mL).

B1: 鼠抗人CD20[ZXCloneHCD20-07] (antibody, V domains shown)
VH: QVQLQQPGAELVKPGASVKMSCKASGYTFTSYNIHWVKQTPGQGLEWIGAIYPGNGDTSHNQKFKGKATLTADRSSSTAYMQFSSLTSEDSAVYYCARSRRYDGDWSFDVWGAGTTVTVSS
VL: QIVLTQSPAIMSASPGEKVTMTCSASSFITYMHWFQQKSGTSPKRWIYDTSKLASGVPARFSGSGSGTSYSLTISSMEAEDAATYYCQQWNSNPPTFGGGTKLEIKR
Regarding B1, the 亲和力(kd) is 190 (1mg/mL).
